From article PMC10945814 come the findings set out here.

This assay concerns the target Abx(+)D, TcmI-like aromatase/cyclase of the (+)-anthrabenzoxocinone pathway (Actinomycetes sp. MA7150). As to the kind of experiment: crystal structure.

One may read the stoichiometry N as a count of units in the complex or per binding partner.

“Abx(+)D, TcmI-like aromatase/cyclase of the (+)-anthrabenzoxocinone pathway (enzyme)” yielded a stoichiometry N of 2.
